Key:
[1] = tested on: KRAS wt pancreatic ductal adenocarcinoma with ATP1B1-NRG1 gene fusion; assay: Compassionate access case, MoST program; type: in vivo, human
Description: FIGS. 10A-10B are representative computed tomography (CT) images of a liver metastasis in a patient with KRAS WT pancreatic cancer that harbors an ATP1B1-NRG1 gene fusion. The patient was treated with seribantumab.
In brief, patients with advanced solid tumors of any histology undergo molecular screening. Genomic alterations are reviewed at molecular tumor boards to identify appropriate biomarker-matched therapeutic sub-studies. Seven GI cancer patients with durable clinical benefit were identified by case review, including a patient with KRAS WT pancreatic cancer harboring an ATP1B1-NRG1 gene fusion. Neuregulin 1 (NRG1) gene fusion proteins are an important oncogenic driver, enriched amongst KRAS wild-type PDAC (8-10%) (Aguirre A J., Clin. Cancer Res. 2019 August; 25(15)). NRG1 is the predominant ligand of ERBB3. These fusion proteins drive tumor progression through aberrant ERBB3 activation. […] The patient had previously exhausted available therapies and had been treated as follows: (1) October 2019 to January 2020, FOLFIRINOX, (2) January 2020 to June 2020, FOLFIRI, (3) June 2020 to August 2020, Gemcitabine/Abraxane, (4) August 2020 to December 2020, FOLFIRI.

[2] = cited from earlier work
OV-10-0050 PDX tumors = assay: HGSOC ovarian PDX model efficacy (CLU-NRG1); type: in vivo, mice; parameters: average tumor volume at the time of the last treatment: unit not given beside the values; conditions: for average tumor volume at the time of the last treatment: day 27
From the text: IHC characterization of the OV-10-0050 PDX model (FIG. 6A). H&E staining, WT1, and TP53 IHC (left to right). […] (FIG. 6B). Treatment was terminated on day 27 and animals were monitored for tumor regrowth until tumors reached maximum allowable size or until 90 days after treatment initiation. Results represent the mean tumor volume ±SEM. A zoom-in view on tumor volumes during the last 40 days of monitoring of seribantumab-treated groups (right). […] Change in the volume of individual tumors (day 27 vs. volume at start of treatment) (FIG. 6C).
Crushed PDX tumor samples were mixed with Matrigel (50%) and injected into the subcutaneous flank of 6-week-old female NSG (LUAD-0061AS3) or Balb/c nude (OV-10-0050) mice. When tumors reached approximately 100-150 mm3, mice were randomly assigned to groups of 5-8 and treatment was commenced. There were 2 mice per group with bilateral flank tumors for the protein phosphorylation/expression study in the LUAD-0061AS3 PDX model. Drugs were administered once, and then tumors were collected at 2, 24, and 168 hours posttreatment. Afatinib was administered by oral gavage once daily as a suspension (in 0.5% methylcellulose-0.4% Tween-80) on a 5-days-on and 2-days-off schedule. […] Mice were observed daily throughout the treatment period for signs of morbidity and mortality. Tumor length and width and animal weights were measured twice weekly. Tumor volume was calculated using the empirical formula V=length×width 2×0.52. The percentage change in tumor volume of each tumor was calculated using the formula [(V2−V1)/V1)]×100, where V1 is the starting tumor volume and V2 is the final tumor volume.
RT-PCR confirmed the presence of the CLU-NRG1 fusion. Xenograft tissue morphology and IHC markers (positive for WT1 and strong nuclear staining for TP53) were consistent with HGSOC histology (FIG. 6A; Kobel M, et al., Int. J. Gynecol. Pathol. 2016; 35:430-41). […] As with the above experiments in the NSCLC PDX model, the doses of seribantumab used here were lower than the dose that is used in patients. Treatment was terminated at day 27 and tumor growth was monitored for an additional 63 days (90 days after initiation of treatment or once tumors reached the maximum allowable size). The tumor volume as a function of time is illustrated in FIG. 6B, and the AUC was computed for each group to compare tumor volumes between groups at the last date of treatment. […] Forty-one days after treatment began, mice bearing vehicle- and afatinib-treated tumors were sacrificed because of the high tumor burden.

B1: seribantumab: anti-ERBB3 (HER3) fully human monoclonal antibody; heavy and light chains SEQ ID NOs: 12 and 13 (antibody)
heavy: EVQLLESGGGLVQPGGSLRLSCAASGFTFSHYVMAWVRQAPGKGLEWVSSISSSGGWTLYADSVKGRFTISRDNSKNTLYLQMNSLRAEDTAVYYCTRGLKMATIFDYWGQGTLVTVSSASTKGPSVFPLAPCSRSTSESTAALGCLVKDYFPEPVTVSWNSGALTSGVHTFPAVLQSSGLYSLSSVVTVPSSNFGTQTYTCNVDHKPSNTKVDKTVERKCCVECPPCPAPPVAGPSVFLFPPKPKDTLMISRTPEVTCVVVDVSHEDPEVQFNWYVDGVEVHNAKTKPREEQFNSTFRVVSVLTVVHQDWLNGKEYKCKVSNKGLPAPIEKTISKTKGQPREPQVYTLPPSREEMTKNQVSLTCLVKGFYPSDIAVEWESNGQPENNYKTTPPMLDSDGSFFLYSKLTVDKSRWQQGNVFSCSVMHEALHNHYTQKSLSLSPGK
light: QSALTQPASVSGSPGQSITISCTGTSSDVGSYNVVSWYQQHPGKAPKLIIYEVSQRPSGVSNRFSGSKSGNTASLTISGLQTEDEADYYCCSYAGSSIFVIFGGGTKVTVLGQPKAAPSVTLFPPSSEELQANKATLVCLVSDFYPGAVTVAWKADGSPVKVGVETTKPSKQSNNKYAASSYLSLTPEQWKSHRSYSCRVTHEGSTVEKTVAPAECS
Which “liver metastasis NTL1 liver seg 8 on CT” value ([1]; June 2021, 26×26 mm before seribantumab) does the source give for B1 here?
Its value is “resolved”.

What about the “duration of ongoing treatment at data cutoff” value ([1]; one patient) of the same molecule?
The value was no less than 8 months.

And the tumor response ([1]; person, treated from December 2020)?
The tumor response was “partial response”.

What about the maximum tolerated dose ([2]; 43 advanced solid tumor patients) of the same molecule?
The maximum tolerated dose was “not reached”.

And the “treatment-emergent adverse events having >20% incidence” value ([2]; 43 patients, all grades regardless of relationship)?
The value was “fatigue, nausea, diarrhea, vomiting, decreased appetite, hyperglycemia, hypokalemia, and rash”.

And the hypomagnesemia ([2]; 43 patients)?
Its hypomagnesemia is “Grade 1”.

What about the “most commonly reported adverse events” value ([2]; 43 patients) of the same molecule?
The value was “Grade 1 or 2 rash, nausea, diarrhea and fatigue”.

What about the “average tumor volume at the time of the last treatment” value (shortened to “average tumor volume at the time”) (OV-10-0050 PDX tumors; 1 mg seribantumab twice weekly) of the same molecule?
The value was 1.3±0.3.

And the “average tumor volume at the time” value (OV-10-0050 PDX tumors; 2.5 mg seribantumab twice weekly)?
The value was 1.9±0.6.

What about the “average tumor volume at the time” value (OV-10-0050 PDX tumors; 5 mg seribantumab twice weekly) of the same molecule?
The value was 17.9±14.5.

What about the “average tumor volume at the time” value (OV-10-0050 PDX tumors; 10 mg seribantumab twice weekly) of the same molecule?
The value was 2.1±0.6.

And the “day on which tumors started to regrow” value (OV-10-0050 PDX tumors; 1, 2.5 and 5 mg seribantumab groups, treatment terminated day 27)?
The value was no more than 73 days.

And the tumor regression (OV-10-0050 PDX tumors; dosage lower than that used in human trials)?
Its tumor regression is 100%.

What about the “tumor regrowth after cessation of treatment” value (OV-10-0050 PDX tumors; highest dose of seribantumab) of the same molecule?
The value was “blocked tumor regrowth after cessation of treatment”.

What about the tumor growth (OV-10-0050 PDX tumors; seribantumab 1, 2.5, 5, 10 mg twice weekly) of the same molecule?
Its tumor growth is “significant tumor shrinkage at all doses tested”.

And the “tumor growth after treatment was stopped” value (OV-10-0050 PDX tumors; seribantumab, monitoring after cessation)?
Its value is “largely repressed for 63 days”.

What about the “tumors that started to regrow at the end of the study” value (OV-10-0050 PDX tumors; two highest dose groups of seribantumab) of the same molecule?
The value was “one of eight”.

Source: patent US20220288204A1, “DOSAGE AND ADMINISTRATION OF ANTI-ERBB3 (HER3) MONOCLONAL ANTIBODIES TO TREAT TUMORS ASSOCIATED WITH NEUREGULIN 1 (NRG1) GENE FUSIONS” (ELEVATION ONCOLOGY, INC., priority 2021, published 2022)
